Experimental data reported in paper PMC10173277.
Read-outs that look alike come from different tables or passages of the source.

Tests used:
[1] = target: collagen type I, bovine tendon, as absorbable collagen sponge (ACS) (bovine) (UniProt P02453); experiment: absorption and release from a collagen sponge, protein in the supernatant by micro-BCA; ACS (150 μL) treated with the fragment in PBS for 1 h at room temperature (75 μg; for ColG-FNIII12-14 also 37.5 and 15 μg); release into 150 μL PBS at 37 °C, supernatant taken and PBS refreshed at 36, 60, 120 h
Sequence of UniProt P02453 (P02453 162-1217, chain 1 of 2): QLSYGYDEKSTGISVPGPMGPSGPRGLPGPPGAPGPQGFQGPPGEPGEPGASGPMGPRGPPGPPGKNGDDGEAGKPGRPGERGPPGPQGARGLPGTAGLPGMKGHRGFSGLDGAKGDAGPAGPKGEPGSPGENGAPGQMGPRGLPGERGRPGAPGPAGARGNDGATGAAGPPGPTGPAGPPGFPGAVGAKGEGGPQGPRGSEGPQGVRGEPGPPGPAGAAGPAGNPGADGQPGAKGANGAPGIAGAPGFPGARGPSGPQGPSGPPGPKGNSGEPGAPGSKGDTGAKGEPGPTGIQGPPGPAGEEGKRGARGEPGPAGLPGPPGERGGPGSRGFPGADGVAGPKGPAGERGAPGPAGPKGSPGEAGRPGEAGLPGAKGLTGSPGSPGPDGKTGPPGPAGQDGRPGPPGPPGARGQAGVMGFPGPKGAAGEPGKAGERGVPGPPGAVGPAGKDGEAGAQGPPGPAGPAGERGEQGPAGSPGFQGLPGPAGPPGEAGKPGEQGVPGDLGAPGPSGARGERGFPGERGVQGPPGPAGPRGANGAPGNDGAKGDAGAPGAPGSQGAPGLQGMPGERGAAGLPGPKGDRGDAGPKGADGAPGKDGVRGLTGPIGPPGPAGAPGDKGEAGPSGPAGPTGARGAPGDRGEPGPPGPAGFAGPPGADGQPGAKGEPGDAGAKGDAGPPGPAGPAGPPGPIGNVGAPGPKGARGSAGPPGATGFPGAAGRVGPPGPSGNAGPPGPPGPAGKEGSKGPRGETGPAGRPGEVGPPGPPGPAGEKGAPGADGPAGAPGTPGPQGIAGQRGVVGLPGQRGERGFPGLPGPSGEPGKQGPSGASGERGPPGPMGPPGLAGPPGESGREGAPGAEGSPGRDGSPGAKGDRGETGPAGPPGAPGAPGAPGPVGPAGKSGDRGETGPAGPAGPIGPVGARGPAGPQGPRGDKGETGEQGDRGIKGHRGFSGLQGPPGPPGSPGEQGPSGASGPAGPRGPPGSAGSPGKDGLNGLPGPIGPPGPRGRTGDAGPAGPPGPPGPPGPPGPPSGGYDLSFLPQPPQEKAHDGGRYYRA
Sequence of UniProt P02453 (P02465 80-1117, chain 2 of 2, further chain): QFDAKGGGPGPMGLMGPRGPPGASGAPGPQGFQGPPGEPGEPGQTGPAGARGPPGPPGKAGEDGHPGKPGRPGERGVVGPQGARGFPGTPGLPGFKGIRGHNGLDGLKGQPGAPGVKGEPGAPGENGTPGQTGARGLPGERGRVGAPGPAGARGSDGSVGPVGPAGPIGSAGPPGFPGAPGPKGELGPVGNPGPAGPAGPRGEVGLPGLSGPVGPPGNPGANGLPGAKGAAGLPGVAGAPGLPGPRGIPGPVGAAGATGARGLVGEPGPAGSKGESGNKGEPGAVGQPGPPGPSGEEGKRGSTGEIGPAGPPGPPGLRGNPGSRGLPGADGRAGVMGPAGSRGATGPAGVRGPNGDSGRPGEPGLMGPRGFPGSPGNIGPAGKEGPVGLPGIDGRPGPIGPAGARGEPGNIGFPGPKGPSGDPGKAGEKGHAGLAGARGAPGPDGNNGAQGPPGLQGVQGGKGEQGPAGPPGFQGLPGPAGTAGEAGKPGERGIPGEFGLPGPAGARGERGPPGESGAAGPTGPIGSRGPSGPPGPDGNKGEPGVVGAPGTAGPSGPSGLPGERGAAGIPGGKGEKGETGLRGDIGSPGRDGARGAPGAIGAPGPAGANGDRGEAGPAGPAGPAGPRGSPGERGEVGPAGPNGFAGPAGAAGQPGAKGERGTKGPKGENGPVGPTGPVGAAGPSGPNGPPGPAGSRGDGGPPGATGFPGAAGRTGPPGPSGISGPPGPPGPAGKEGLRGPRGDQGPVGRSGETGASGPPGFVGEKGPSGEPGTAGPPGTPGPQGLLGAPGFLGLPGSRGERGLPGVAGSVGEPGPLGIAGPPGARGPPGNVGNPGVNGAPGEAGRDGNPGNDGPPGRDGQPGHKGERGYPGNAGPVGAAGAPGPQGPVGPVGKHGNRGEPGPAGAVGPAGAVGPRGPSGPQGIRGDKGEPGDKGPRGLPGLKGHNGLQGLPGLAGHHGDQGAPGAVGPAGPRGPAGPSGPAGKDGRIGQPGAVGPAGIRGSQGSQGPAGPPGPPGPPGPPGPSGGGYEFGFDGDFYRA

[2] = target: collagen type I, bovine tendon, as absorbable collagen sponge (ACS) (bovine) (UniProt P02453)
[3] = target: collagen type I, bovine tendon, as absorbable collagen sponge (ACS) (bovine) (UniProt P02453); remark: listed apart in the source
[4] = target: ColG-FNIII12-14 treated collagen scaffold (Clostridium histolyticum | not stated | bovine) (UniProt P02453); experiment: absorption and release of fluorescent rhBMP-2 from a collagen sponge, fluorescence of the supernatant; Dylight 488 rhBMP-2 (0.1, 0.5, 1, 2 μg/mL) incubated 1 h at 37 °C with ACS with or without ColG-FNIII12-14; release into PBS at 37 °C, supernatant read and PBS refreshed at 36, 60, 120 h

## PLGF-FNIII12-14 protein fragment
[1]
  percent of the absorbed fragment remaining bound after 120 h: 10%

## ColH-FNIII12-14 protein fragment
[2]
  amount of fragment remaining on the ACS after 120 h (pmol per 1 mg of collagen): 90
[3]
  percent of the absorbed fragment remaining bound after 120 h: 10%

## ColG-FNIII12-14 protein fragment
[1]
  percent of the absorbed fragment remaining bound after 120 h: 43%

B1: recombinant human bone morphogenic protein 2, tagged with Dylight 488 (ligand)
chain: QAKHKQRKRLKSSCKRHPLYVDFSDVGWNDWIVAPPGYHAFYCHGECPFPLADHLNSTNHAIVQTLVNSVNSKIPKACCVPTELSAISMLYLDENEKVVLKNYQDMVVEGCGCR
modifications: Dylight 488 (amino reactive NHS ester dye)
[4]
  percent of rhBMP-2 absorbed: 30 to 32%
  percent of the absorbed rhBMP-2 retained after 120 h: 33%
